# T1: GRF4 (Homo sapiens, UniProt Q9Y4G8, DEL134-254)
# T1 construct: Flag, HA or myc tags was added to the N-terminus of full length GRF4 using PCR; expressed in transfected cells; host or cells: HEK-293T
# T1 sequence (Q9Y4G8 with tags, fused parts or gaps DEL134-254): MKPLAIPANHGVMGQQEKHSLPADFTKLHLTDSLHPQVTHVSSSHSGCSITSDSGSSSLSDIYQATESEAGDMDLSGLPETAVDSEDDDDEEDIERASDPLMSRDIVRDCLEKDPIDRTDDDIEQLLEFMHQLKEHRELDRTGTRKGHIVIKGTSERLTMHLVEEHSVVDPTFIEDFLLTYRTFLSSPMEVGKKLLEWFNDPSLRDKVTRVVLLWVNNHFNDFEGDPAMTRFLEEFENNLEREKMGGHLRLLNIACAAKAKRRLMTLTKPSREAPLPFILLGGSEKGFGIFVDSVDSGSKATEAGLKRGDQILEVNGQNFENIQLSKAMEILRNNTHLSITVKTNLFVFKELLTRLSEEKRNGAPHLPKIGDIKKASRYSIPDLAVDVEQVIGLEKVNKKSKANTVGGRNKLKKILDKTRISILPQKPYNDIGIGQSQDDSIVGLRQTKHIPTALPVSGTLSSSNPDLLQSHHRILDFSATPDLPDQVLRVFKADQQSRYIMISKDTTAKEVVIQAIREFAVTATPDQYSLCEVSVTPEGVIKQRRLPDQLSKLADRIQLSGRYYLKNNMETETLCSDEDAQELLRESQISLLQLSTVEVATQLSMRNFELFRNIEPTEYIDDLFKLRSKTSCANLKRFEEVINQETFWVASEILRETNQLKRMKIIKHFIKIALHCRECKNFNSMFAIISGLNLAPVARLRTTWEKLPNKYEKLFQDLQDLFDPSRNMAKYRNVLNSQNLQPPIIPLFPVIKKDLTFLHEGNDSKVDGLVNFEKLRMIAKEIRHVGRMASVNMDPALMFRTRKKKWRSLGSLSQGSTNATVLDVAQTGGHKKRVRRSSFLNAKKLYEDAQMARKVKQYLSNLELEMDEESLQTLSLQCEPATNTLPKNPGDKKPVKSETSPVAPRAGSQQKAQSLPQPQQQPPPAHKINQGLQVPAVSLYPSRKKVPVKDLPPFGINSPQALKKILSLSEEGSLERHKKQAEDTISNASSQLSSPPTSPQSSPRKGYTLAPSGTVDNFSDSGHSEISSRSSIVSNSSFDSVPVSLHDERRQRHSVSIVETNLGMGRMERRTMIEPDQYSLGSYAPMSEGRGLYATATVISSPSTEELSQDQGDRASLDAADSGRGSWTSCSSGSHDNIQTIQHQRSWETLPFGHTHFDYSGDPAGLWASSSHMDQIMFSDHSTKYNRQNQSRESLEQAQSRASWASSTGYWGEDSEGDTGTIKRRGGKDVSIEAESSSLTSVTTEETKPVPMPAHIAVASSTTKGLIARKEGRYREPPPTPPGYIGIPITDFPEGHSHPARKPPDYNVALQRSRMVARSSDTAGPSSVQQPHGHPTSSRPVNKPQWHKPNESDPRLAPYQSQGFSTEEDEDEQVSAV
# What was measured:
# Ras = Ras activation assay in living cells, GRF4 and deletion mutants expressed in HEK-293T cells; assay type: cell-based, human; settings: HEK-293T cells treated with 8-Br-cAMP
# Procedure: HEK-293T cells were transfected with vector alone, GRF4 (WT), GRF4 lacking its cNMP-BD (ΔcNMP-BD) or its CDC25 domain (ΔCDC25), and then treated (or not) with 8-Br-cAMP. Cell lysates were then incubated with GST-Raf1-RBD to precipitate active Ras, and immunobloited with anti Ras antibodies as above (upper panel). Lower panels are controls for total endogenous Ras and transfected GRF4 or its mutants.
# Flag, HA or myc tags was added to the N-terminus of full length GRF4 using PCR, and subcloned into the mammalian expression vector pCMV5 (Invitrogen). Mutants GRF4 with deletion of the CDC25 domain (residue 711-1007, GRF4DCDC25 or DCDC25 for short), the cNMP-BD (residue 134-254, DcNMP-BD), the PLPF motif in the PDZ domain (residue 396-399, -PLPF), or bearing mutations in the PDZ-binding motif (SAV to AAA), were generated using PCR. The GST-GRF4-cNMP-BD (residue 101-303) and GST-Carboxy-terminus (residue 1348-1499) were PCR-generated and cloned into pGEX-2T ( Pharmacia). The latter construct was used to generate a fusion protein (GST-GRF4C terminus) which was used to immunize rabbits for the generation of polyclonal anti GRF4 antibodies.
# HEK-293T cells were transfected as above, serum starved overnight and then subjected to various treatments, as described in the text. […] GTP in the lysates was determined using activation specific probes as described. Briefly, to determined the levels of active Ras (Ras-GTP) in cell, sepharose-bound GST fusion protein of the Ras-binding domain (RBD) of Raf-1 (GST-Raf1-RBD; Upstate Biotechnology Inc.) was used to precipitate Ras-GTP from cell lysates, and the amount of Ras-GTP determined by immunoblotting with anti Ras antibodies (Quality Biotech). Similarly, to determine the level of Rap1-GTP in cell lysates, sepharose-bound GST fusion proteins of the Rap1-binding domain of RaIGDS (GST-RaIGDS-RBD) were used to precipitate Rap1-GTP, which was then detected on a Western blot using anti-Rap1 antibodies (Transduction Lab).
# GRF4 = biological target: T1, GRF4; test: Activation of Ras and MAPK by cNMP analogues in GRF4-transfected HEK-293T cells; assay type: cell-based; settings: HEK-293T cells
# Procedure: The small GTPase Ras controls the MAPK pathway and exerts its effects on cellular processes primarily through this pathway. MAPK is a downstream kinase of Ras and thus, Ras activation leads to MAPK activation (FIG. 6A). Therefore, we show the GRF4 effects on MAPK activation using assays in which levels of active MAPK in cells is determined using antibodies recognizing phosphorylated (active) MAPK.
molecule,measurement,setting,value
ΔcNMP-BD: Mutant GRF4 with deletion of the cNMP-BD (residue 134-254) (protein) MKPLAIPANHGVMGQQEKHSLPADFTKLHLTDSLHPQVTHVSSSHSGCSITSDSGSSSLSDIYQATESEAGDMDLSGLPETAVDSEDDDDEEDIERASDPLMSRDIVRDCLEKDPIDRTDDDIEQLLEFMHQLKEHRELDRTGTRKGHIVIKGTSERLTMHLVEEHSVVDPTFIEDFLLTYRTFLSSPMEVGKKLLEWFNDPSLRDKVTRVVLLWVNNHFNDFEGDPAMTRFLEEFENNLEREKMGGHLRLLNIACAAKAKRRLMTLTKPSREAPLPFILLGGSEKGFGIFVDSVDSGSKATEAGLKRGDQILEVNGQNFENIQLSKAMEILRNNTHLSITVKTNLFVFKELLTRLSEEKRNGAPHLPKIGDIKKASRYSIPDLAVDVEQVIGLEKVNKKSKANTVGGRNKLKKILDKTRISILPQKPYNDIGIGQSQDDSIVGLRQTKHIPTALPVSGTLSSSNPDLLQSHHRILDFSATPDLPDQVLRVFKADQQSRYIMISKDTTAKEVVIQAIREFAVTATPDQYSLCEVSVTPEGVIKQRRLPDQLSKLADRIQLSGRYYLKNNMETETLCSDEDAQELLRESQISLLQLSTVEVATQLSMRNFELFRNIEPTEYIDDLFKLRSKTSCANLKRFEEVINQETFWVASEILRETNQLKRMKIIKHFIKIALHCRECKNFNSMFAIISGLNLAPVARLRTTWEKLPNKYEKLFQDLQDLFDPSRNMAKYRNVLNSQNLQPPIIPLFPVIKKDLTFLHEGNDSKVDGLVNFEKLRMIAKEIRHVGRMASVNMDPALMFRTRKKKWRSLGSLSQGSTNATVLDVAQTGGHKKRVRRSSFLNAKKLYEDAQMARKVKQYLSNLELEMDEESLQTLSLQCEPATNTLPKNPGDKKPVKSETSPVAPRAGSQQKAQSLPQPQQQPPPAHKINQGLQVPAVSLYPSRKKVPVKDLPPFGINSPQALKKILSLSEEGSLERHKKQAEDTISNASSQLSSPPTSPQSSPRKGYTLAPSGTVDNFSDSGHSEISSRSSIVSNSSFDSVPVSLHDERRQRHSVSIVETNLGMGRMERRTMIEPDQYSLGSYAPMSEGRGLYATATVISSPSTEELSQDQGDRASLDAADSGRGSWTSCSSGSHDNIQTIQHQRSWETLPFGHTHFDYSGDPAGLWASSSHMDQIMFSDHSTKYNRQNQSRESLEQAQSRASWASSTGYWGEDSEGDTGTIKRRGGKDVSIEAESSSLTSVTTEETKPVPMPAHIAVASSTTKGLIARKEGRYREPPPTPPGYIGIPITDFPEGHSHPARKPPDYNVALQRSRMVARSSDTAGPSSVQQPHGHPTSSRPVNKPQWHKPNESDPRLAPYQSQGFSTEEDEDEQVSAV,"8-Br-cAMP-mediated activation of Ras via the construct, compared with wt-GRF4",Ras,almost abolished
same,Activation of Ras and MAPK by the expressed mutant,GRF4,constitutively

# From US20020143164A1, “Ras activator nucleic acid molecules, polypeptides and methods of use” (priority 1999, published 2002)
